Results as given in patent US20110039770A1, “INHIBITORS OF PROTEIN KINASE C ISOFORMS AND USES THEREOF” (PHARMAGAP INC., priority 2005, published 2011).
Where a SMILES comes first, the peptide text is derived from it. [ ]: non-standard residue; d: D form.

Key:
PKC-βI [1] = molecular target: T1, PKC-βI (Homo sapiens, UniProt P05771); assay: Competition of PRE with PKC-βI antibody binding, Protocol B, IMR-32; set-up: PKC-βII by PRE 3 and PRE 4 in IMR-32 Neuroblastoma; endogenous in cells; host or cells: IMR-32 human neuroblastoma cells; conditions: for Band Intensity: Protocol B (control 170.5)
T1 sequence (P05771 whole entry): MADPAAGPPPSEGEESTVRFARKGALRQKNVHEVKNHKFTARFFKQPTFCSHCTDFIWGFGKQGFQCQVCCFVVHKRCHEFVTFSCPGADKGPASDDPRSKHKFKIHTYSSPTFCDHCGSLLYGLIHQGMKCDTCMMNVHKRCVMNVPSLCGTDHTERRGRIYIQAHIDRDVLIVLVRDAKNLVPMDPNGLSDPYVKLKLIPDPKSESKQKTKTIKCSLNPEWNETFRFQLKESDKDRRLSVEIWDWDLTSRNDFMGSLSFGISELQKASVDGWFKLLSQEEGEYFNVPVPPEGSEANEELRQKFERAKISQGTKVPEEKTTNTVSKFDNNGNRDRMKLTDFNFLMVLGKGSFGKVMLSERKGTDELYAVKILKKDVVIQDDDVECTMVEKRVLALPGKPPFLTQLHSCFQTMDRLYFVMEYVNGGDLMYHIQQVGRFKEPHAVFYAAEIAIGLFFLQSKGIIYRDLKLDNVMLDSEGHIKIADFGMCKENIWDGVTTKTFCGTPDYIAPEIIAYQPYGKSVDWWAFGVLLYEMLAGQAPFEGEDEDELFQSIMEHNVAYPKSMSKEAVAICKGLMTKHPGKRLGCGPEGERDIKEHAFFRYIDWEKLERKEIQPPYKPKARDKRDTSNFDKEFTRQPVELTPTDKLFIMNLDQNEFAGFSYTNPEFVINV
Procedure: The ability of the peptides PRE 2 and PRE 3 (see Table 4) to interfere with the binding of a PKC-α-specific polyclonal antibody (Santa Cruz Biotechnology, Inc.) to PKC-α was determined using a modified version of the protocol outlined above in which the test peptide was added directly to the cell extract prior to electrophoresis at a concentration of either 5× or 15× the concentration of the protein applied to each well of the gel for the Western blots (20 μg).
Peptides PRE 3 and PRE 4 (see Table 4) were tested for their ability to interfere with the binding of isoform-specific polyclonal antibodies (Santa Cruz Biotechnology, Inc.) to PKC-α, PKC-βI or PKC-βII using the general protocol described in Example 3.

PKC-βI [2] = molecular target: T1, PKC-βI; assay: Competitive binding assay using cell extracts (Western blot); set-up: PKC-βII by PRE 3 and PRE 4 in IMR-32 Neuroblastoma; endogenous in cells; host or cells: IMR-32 human neuroblastoma cells; key: —: no detectable affinity; Low to very low affinity at 10X or 20X or both PRE concentrations in at least one cell line in the cell extract assay; Low affinity in purified isoform assay.; Moderate affinity at 10X or 20X or both PRE concentrations in at least one cell line in the cell extract assay.; High affinity at 10X or 20X or both PRE concentrations in at least one cell line in the cell extract assay; High affinity in purified isoform assay; conditions: Cell extract; PRE 10X or 20X antibody concentration
PKC-α = PKC-α (Homo sapiens, UniProt P17252); assay: Subcellular localisation of PKC-α in IMR-32 cells; assay type: cell-based; set-up: endogenous PKC-α in (A) untreated human neuroblastoma (IMR-32) cells; endogenous in cells; host or cells: IMR-32 human neuroblastoma cells; conditions: 10 mg/ml, pinocytic endocytosis
Procedure: Peptides PRE 3 or PRE 4 (10 mg/ml) were introduced into human neuroblastoma cells (IMR-32) by pinocytic endocytosis. The cells were fixed and stained with rabbit PKC-α primary antibody and anti-rabbit Alexa-488 or Alexa-800 secondary antibody.

PKC-ε = molecular target: T2, PKC-ε (Homo sapiens, UniProt Q02156); assay: Competitive binding assay using cell extracts (Western blot); set-up: cytoplasmic extracts from different cell lines expressing appropriate PKC isoforms; endogenous in cells; host or cells: CCD16Lu, LnCAP, Du145, MDAMB231, LS180; key: —: no detectable affinity; Low to very low affinity at 10X or 20X or both PRE concentrations in at least one cell line in the cell extract assay; Low affinity in purified isoform assay.; Moderate affinity at 10X or 20X or both PRE concentrations in at least one cell line in the cell extract assay.; High affinity at 10X or 20X or both PRE concentrations in at least one cell line in the cell extract assay; High affinity in purified isoform assay; conditions: Cell extract; PRE 10X or 20X antibody concentration
T2 sequence (Q02156 1-737): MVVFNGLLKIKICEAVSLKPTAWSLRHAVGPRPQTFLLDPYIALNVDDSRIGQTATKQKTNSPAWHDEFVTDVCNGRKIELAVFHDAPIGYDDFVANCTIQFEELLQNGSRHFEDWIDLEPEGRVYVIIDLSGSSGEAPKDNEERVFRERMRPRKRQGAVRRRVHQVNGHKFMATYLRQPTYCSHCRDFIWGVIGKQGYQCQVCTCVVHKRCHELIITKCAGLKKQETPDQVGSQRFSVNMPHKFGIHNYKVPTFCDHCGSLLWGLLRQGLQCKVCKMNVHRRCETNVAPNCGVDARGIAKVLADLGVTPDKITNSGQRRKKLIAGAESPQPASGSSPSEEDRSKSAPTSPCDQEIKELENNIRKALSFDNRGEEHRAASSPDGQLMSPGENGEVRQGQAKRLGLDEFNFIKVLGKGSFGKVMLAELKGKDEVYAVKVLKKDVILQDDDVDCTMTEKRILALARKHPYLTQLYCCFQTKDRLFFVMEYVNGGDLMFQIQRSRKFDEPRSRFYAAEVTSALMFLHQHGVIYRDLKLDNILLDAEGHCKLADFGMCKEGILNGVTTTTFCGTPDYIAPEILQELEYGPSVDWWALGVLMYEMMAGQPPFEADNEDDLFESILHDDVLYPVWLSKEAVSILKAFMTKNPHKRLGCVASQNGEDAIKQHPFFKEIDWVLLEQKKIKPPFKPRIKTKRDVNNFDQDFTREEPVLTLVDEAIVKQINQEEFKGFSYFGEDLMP
Procedure: Binding efficiency and specificity of the peptides PRE 2, 3, 4, 5, 6, 7, 8, 9, 10, 11, 12 and 13 (see Table 4) was also tested using cytoplasmic extracts from different cell lines expressing appropriate PKC isoforms as described for Example 1. Briefly, the protein cytoplasmic extracts were separated by electrophoresis and transferred onto nitrocellulose membranes by standard Western blotting procedures. The bands on the Western blots were detected with matching primary antibodies and alkaline phosphatase conjugated secondary antibody. The bands were then scanned and the relative density measurements obtained.
This procedure to assess the binding characteristics of the PREs is based on competition binding of the PRE with the primary anti-isoform PKC specific antibodies. The lower the measured band density, the greater the binding of the PRE to the PKC isoform. The PREs were added at 10 and 20 times (10×, 20×) the primary antibody concentration, according to classical competition between antigenic peptide and primary antibody. The following cell lines (obtained from the ATCC) were used: H661—NCI human lung carcinoma NSCLC; MDAMB231—human highly invasive breast cancer cell line from pleural effusion; LS180—human colon adenocarcinoma; LnCAP—human prostate adenocarcinoma; CCD16Lu—human lung fibroblasts; Du145—human prostate carcinoma brain metastasis, and T24—human bladder carcinoma.
In these cases, the 20× band density figures relative to control and 10× values were reliable.

Compound | Band Intensity (PKC-βI [1]; 100 μg) | Relative Intensity (%) (PKC-βI [1]; 200 μg, Protocol B) | Band Intensity (PKC-βI [1]; 200 μg) | Band Intensity (PKC-βI [1]; 300 μg) | Affinity for PKC isoform βI (PKC-βI [2]) | effect on subcellular localisation of PKC-α (PKC-α) | Affinity for PKC isoform ε (PKC-ε)
CC[C@H](C)[C@H](NC(=O)[C@H](CO)NC(=O)[C@@H](NC(=O)CNC(=O)[C@@H](NC(=O)[C@H](CC(C)C)NC(=O)[C@H](CC(N)=O)NC(=O)[C@H](CCC(N)=O)NC(=O)[C@H](C)NC(=O)[C@H](CC(=O)O)NC(=O)CNC(=O)CNC(=O)[C@H](CCCCN)NC(=O)[C@@H](NC(=O)[C@H](CCC(=O)O)NC(=O)[C@H](CCC(N)=O)NC(=O)[C@@H](NC(=O)CNC(=O)[C@H](CCCCN)NC(=O)[C@H](C)NC(C)=O)[C@@H](C)CC)C(C)C)[C@@H](C)CC)[C@@H](C)CC)C(N)=O [PRE 3] (Ac-AKGIQEVKGGDAQNLIGISI-NH2) | 0.0 | 0.0% | 0.0 | 0.0 | L | does not alter the subcellular localisation of PKC-α | L
CC[C@H](C)[C@H](NC(=O)[C@H](CO)NC(=O)[C@@H](NC(=O)CNC(=O)[C@@H](NC(=O)[C@H](CC(C)C)NC(=O)[C@H](CC(N)=O)NC(=O)[C@H](CCC(N)=O)NC(=O)[C@H](C)NC(=O)[C@H](CC(=O)O)NC(=O)[C@H](CCCCN)NC(C)=O)[C@@H](C)CC)[C@@H](C)CC)C(N)=O [PRE 4, Ac-KDAQNLIGISI-NH2] (Ac-KDAQNLIGISI-NH2) | 112.5 |  | 0.0 | 0.0 | H | prevented translocation of PKC-α to the membrane | H/L
CC[C@H](C)[C@H](NC(=O)[C@H](CO)NC(=O)[C@@H](NC(=O)CNC(=O)[C@@H](NC(=O)[C@H](CC(C)C)NC(=O)[C@H](CC(N)=O)NC(=O)[C@H](CCC(N)=O)NC(=O)[C@H](C)NC(=O)[C@H](CC(=O)O)NC(=O)[C@H](CCCCN)NC(=O)CNC(=O)CNC(=O)[C@H](CCCCN)NC(=O)[C@@H](NC(=O)[C@H](CCC(=O)O)NC(=O)[C@H](CCC(N)=O)NC(=O)[C@@H](NC(=O)CNC(=O)[C@H](CCCCN)NC(=O)[C@H](C)NC(C)=O)[C@@H](C)CC)C(C)C)[C@@H](C)CC)[C@@H](C)CC)C(N)=O [PRE 5] (Ac-AKGIQEVKGGKDAQNLIGISI-NH2) |  |  |  |  | H |  | L
Ac-ISIGILNQADK-NH2 [PRE 10] |  |  |  |  | M |  | M/L
Ac-ISIGILQNADK-NH2 (not fully specified; printed as Ac-ISIGILQNADK-NH2) [PRE 7] |  |  |  |  | — |  | —
Ac-KDANQLIGISI-NH2 [PRE 6] |  |  |  |  | H |  | M
Ac-KDAQNLI-NH2 [PRE 12] |  |  |  |  | — |  | —
Ac-RDAQNLI-NH2 [PRE 13] |  |  |  |  | — |  | —
Ac-RDAQNLIGISI-NH2 [PRE 11] |  |  |  |  | H |  | —
Ac-isigilqnadk-NH2 (Ac-[dI][dS][dI]G[dI][dL][dQ][dN][dA][dD][dK]-NH2; SMILES CC[C@@H](C)[C@@H](NC(C)=O)C(=O)N[C@H](CO)C(=O)N[C@@H](C(=O)NCC(=O)N[C@@H](C(=O)N[C@H](CC(C)C)C(=O)N[C@H](CCC(N)=O)C(=O)N[C@H](CC(N)=O)C(=O)N[C@H](C)C(=O)N[C@H](CC(=O)O)C(=O)N[C@H](CCCCN)C(N)=O)[C@H](C)CC)[C@H](C)CC) [PRE 9] |  |  |  |  | M |  | M/L
ILEDKGGDAQNLIGISI [PRE 8] |  |  |  |  |  |  | L
RRKKGGKDFVVKR [PRE 1] |  |  |  |  | H |  | 
